Test results reported in PMC10242635.

T1: FXR-DBD (human, UniProt Q96RI1-1 117-217)
T1 sequence: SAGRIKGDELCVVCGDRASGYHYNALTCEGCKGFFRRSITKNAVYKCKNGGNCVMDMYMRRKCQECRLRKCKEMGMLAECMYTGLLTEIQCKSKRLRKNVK

B1: IR1 (crystal) (dsDNA)
DNA 1: CCGAGGTCAATGACCTCG
DNA 2: CCGAGGTCATTGACCTCG
B2: IR1 (FPA) (dsDNA)
DNA 1: CCGAGGTCAATGACCTCG
DNA 2: CGAGGTCATTGACCTCGG

What was measured:
[1] = biological target: T2, FXR-DBD;RXR-DBD (human;human, UniProt Q96RI1-1;P19793 117-217;130-212, |); experiment: X-ray crystallography
[2] = biological target: T2, FXR-DBD;RXR-DBD; experiment: fluorescence polarization
[3] = biological target: T1, FXR-DBD; experiment: fluorescence polarization

T2 sequence (P19793 130-212, one chain of several): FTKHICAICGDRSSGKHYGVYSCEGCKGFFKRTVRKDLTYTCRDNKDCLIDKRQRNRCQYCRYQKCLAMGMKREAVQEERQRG

Binder | binding result [1] | Kd [2] | Kd [3]
B1 | binds |  | 
B2 |  | ~54 nM | 95 nM
